The target in experiment [1] is TRF2^TRFH (TRF Homology domain of human TRF2, residues 42–245) (human). As to the kind of experiment: ITC; MCPH1^TBM peptides at 1.0 mM in the syringe titrated into TRF2^TRFH at 0.1 mM in the sample cell; 20 °C; 25 mM Tris-HCl pH 8.0, 150 mM NaCl. A general note: ITC needs no label: the signal is the heat of the interaction.
Experiment [2] has as its target TRF2, endogenous (U2OS) (human (endogenous in U2OS)) (UniProt Q15554).

Where a chain is given by its changes, count along the chain named. Names and notes keep the numbering of the source. Where no end group is shown, it is not given here. [ ]: non-standard residue; d: D form. pS = N[C@@H](COP(=O)(O)O)C(=O)O

We go through eight molecules from article PMC7672075.

A word on the Kd: it is the constant that tells how readily two partners part at equilibrium.

UniProt Q15554, sequence (Q15554 whole entry): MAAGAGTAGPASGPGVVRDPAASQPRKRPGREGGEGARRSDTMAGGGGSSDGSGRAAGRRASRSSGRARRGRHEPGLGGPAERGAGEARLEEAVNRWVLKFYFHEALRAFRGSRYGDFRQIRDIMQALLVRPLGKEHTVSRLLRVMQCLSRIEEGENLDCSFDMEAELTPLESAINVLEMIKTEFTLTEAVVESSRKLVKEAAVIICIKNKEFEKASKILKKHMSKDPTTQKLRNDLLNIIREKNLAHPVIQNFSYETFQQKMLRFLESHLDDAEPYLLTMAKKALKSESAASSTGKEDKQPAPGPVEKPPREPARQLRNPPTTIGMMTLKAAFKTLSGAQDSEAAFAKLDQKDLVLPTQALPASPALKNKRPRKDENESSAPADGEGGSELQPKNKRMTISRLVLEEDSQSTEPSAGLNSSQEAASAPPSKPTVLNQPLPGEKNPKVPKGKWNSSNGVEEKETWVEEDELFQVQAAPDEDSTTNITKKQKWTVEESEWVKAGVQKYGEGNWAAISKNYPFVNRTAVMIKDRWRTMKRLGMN

Molecule SQETFEEKYRLEPTLSSTKGH [MCPH1^TBM peptide S333E, synthetic] gave a Kd in experiment [1] of 14 µM.
The same measure, in the same setting: the result for SQETFEEKYRLSATLSSTKGH [MCPH1^TBM peptide P334A, synthetic] reads 24 µM; that for SQETFEEKYRL[pS]PTLSSTKGH (also: phosphoserine at S333, position in peptide not given here) [MCPH1^TBM peptide phosphorylated at S333, synthetic], 79 µM.
On to SQETFEEKYRLDPTLSSTKGH [MCPH1^TBM peptide S333D, synthetic], for which the dissociation constant (Kd) in experiment [1] stood at 21 µM.
Still for that read-out and setting: the result for SQETFEEKYRLAPTLSSTKGH [MCPH1^TBM peptide S333A, synthetic] reads 0.16 µM; that for SQETFEEKYRLSPTLSSTKGH [MCPH1^TBM peptide, wild type, synthetic], 0.24 µM.

B1: FLAG-tagged WT MCPH1 (human) (natural protein)
chain: MAAPILKDVVAYVEVWSSNGTENYSKTFTTQLVDMGAKVSKTFNKQVTHVIFKDGYQSTWDKAQKRGVKLVSVLWVEKCRTAGAHIDESLFPAANMNEHLSSLIKKKRKCMQPKDFNFKTPENDKRFQKKFEKMAKELQRQKTNLDDDVPILLFESNGSLIYTPTIEINSRHHSAMEKRLQEMKEKRENLSPTSSQMIQQSHDNPSNSLCEAPLNISRDTLCSDEYFAGGLHSSFDDLCGNSGCGNQERKLEGSINDIKSDVCISSLVLKANNIHSSPSFTHLDKSSPQKFLSNLSKEEINLQRNIAGKVVTPDQKQAAGMSQETFEEKYRLSPTLSSTKGHLLIHSRPRSSSVKRKRVSHGSHSPPKEKCKRKRSTRRSIMPRLQLCRSEDRLQHVAGPALEALSCGESSYDDYFSPDNLKERYSENLPPESQLPSSPAQLSCRSLSKKERTSIFEMSDFSCVGKKTRTVDITNFTAKTISSPRKTGNGEGRATSSCVTSAPEEALRCCRQAGKEDACPEGNGFSYTIEDPALPKGHDDDLTPLEGSLEEMKEAVGLKSTQNKGTTSKISNSSEGEAQSEHEPCFIVDCNMETSTEEKENLPGGYSGSVKNRPTRHDVLDDSCDGFKDLIKPHEELKKSGRGKKPTRTLVMTSMPSEKQNVVIQVVDKLKGFSIAPDVCETTTHVLSGKPLRTLNVLLGIARGCWVLSYDWVLWSLELGHWISEEPFELSHHFPAAPLCRSECHLSAGPYRGTLFADQPAMFVSPASSPPVAKLCELVHLCGGRVSQVPRQASIVIGPYSGKKKATVKYLSEKWVLDSITQHKVCAPENYLLSQ
Take B1: in experiment [2], the percentage of HeLa cells with >5 FLAG-MCPH1 foci at telomeres (immunostaining and telomere PNA-FISH), functional telomeres is 11 % of cells.

B2: FLAG-MCPH1^S333A (natural protein)
chain: B1 chain with S333A
As for B2, the percentage of HeLa cells with >5 FLAG-MCPH1 foci at telomeres (immunostaining and telomere PNA-FISH), functional telomeres in experiment [2] was 48 % of cells.
